The source of these data is a protein production outcome set (Wang et al. 2014).

The series is described as follows: label from the status in PepcDB records.
For “MFQPVTQKRLTNVSVVRMRKGGKRFEIACYPNMVMAYREGHVRDLDEVIQVEDVFENVSKGKLAANADLERCFGTRDRHAVLLQILLHGDLQVSDRERQYQSTRKLHEIASVVAAKTISRETKKPLPVGLIEKALREIHFAVQPNRPAKAQALEVIPLLRAQSGLDLERARLRLRIHVPSQRDAKAVKARLEPLQQGETDGTHSSSRSDSVRMKDGSAAVESESEEWLPGGALLWTVQADPGAFREIEEIVQRETNQQGIVEVASLRVLDDEDESILS”, the protein production result is on record as “failed”.

On to “MTNKRVVQTFLATSALFLAMSGMSARAQDASAPAAGAPAPSAAAPMHHHGSGFKKLDTNGDGMVSRDEAKGHRWLEDHFDEIDTNHDGQISKDELAAWHKTHAGEMRGKMQARLDAKFKAADKNGDGALTREEMQAGLPKLARHFDEIDANHDGKVTEDEIRAFMKARHDAHRAQHGTPAAAVTPGGPSATKGE”, for which the protein production entry was “failed”.

Take “MGDEHSLIPKQIGVVPSAGFLNVEVFERPCPEPNIQPWDIPYVHYPKPKTYSSSNGEIFSVKDRRANVSTIFETLDKVYNLDWLSSASKNECTSAVGLKWMLNQAEILARYKPLINTSLLIPDLKQVQEMTSKALAYFNTTRHIFLYYEDVVKNRTKLDDVQEFLKVPKLDLKSRQVKIHHGPLSQHVQNWEEVQKTLKGTGFENFLLEDYRR”: the protein production result is “failed”.

Turning to “MSTKTVHYPWFKKEDIDAFFALFQNNLANFVIIAVTMIGLGFPASLVFGKVIPGVAVAVIVGNLYYAYMANRLAQKESRSDVTALSYGISTPVMFVFLFGILAPALALTGDPELAWKIGLAAAFLSGFIELLVSFTGNWVRKHLPRPAMLGALAGVAVTFIAGEMLFQVFSIPVVGLVALAIILLGVVGKVTLPFNIPPSLCAVIIGTVLAFVLGYQSANTLQDSLANIGLYPILPSLGAFEGFGYLFGPLVGLLAILLPITIYNAIETMNNVDAMAAAGDSYDVRECQAVDGVGTMIGAVFGGLFPTTVYIATVGSKWMGAGRGYSILNALVFAITAVTGVIAALSELIPLAAVAPILVFVGMSMVVTAFDPNDRKYYPAVALAMLPYVANYVMTRFNNNAGEVVQGISEGIVPLGQGAMFTAIILGAIAVCIIDKQFIKAAVFSLIGAGLSFAGFMHAPELSFNAAPDYSLGYLCIAILFSYCAFRKTSKEAVASPSTLSSKRVAS”, the protein production entry is listed as “failed”.

As for “MPGDLPMPTTMFTADELAVIRRAYAHQVMATAATTNPRIEAAFATVPREKFLGAPPWQIANLGGGNRPLPSSDLVLAYQDVLFALQPDNGVNNGSPSLHARLLAELDIQIGDRIAHIGAGTGYYSAILAELVGTSGHVYAVEMDPDLAAHAQAALAERANVSVINADGSQWPQQEVDAIYVNFAVARPAEPWIERLRPGGRLVLPLGVPRQDRPPKGGRHASHGAALRIEHGEGGFAARWIGTAYFVCANGGLTIDDNEIEALTAAFRRGGIEFVKSLLWKTEPRIGRCWHIGGQWALCYDDV”, the protein production result is listed as “failed”.

For the sequence “MFNLYPPHRSLEGAAILGDNCSRIFNVSDTVVNTLHIVMQSHANPLGILHGGNMIRWLVDAGTLAASKVVVGYPLLAGIDFIYLGKPVGVGETIAVFAWSPYAGRSSVEVGLAAYSLGRPGGQGLERVSAAHMTFVNVKPHEGVLRPHPHGSCIEAVDREEERLLEASMKMREARVERLRGRELLRQTVYSLRESGTEPFEVESYRIVNPIDSVAYDVMHAGAMLYIVDELGAVAALRSSAGIVVTGFVGPADFVAPMRVGEVLRMWARTSYVGRSSVEVLIRSASGFMGGGEARLTSEAYLTYISLDSSGRPLEINAPRGWEPEEQALRRAEWRRRLIRSIDSGETALEPPRRFLEMLMRGRVG”, the protein production result is on record as “failed”.

As for “MTTPTPTPTPTSQSLAAPFAQGVEGVYFDGRSSRDRAATLRVLGSGDLSSGAPLAVLRVAPTDGEPGSEQQWPLRQVQFDPPLAGVRRVVKLPDGGRFETNDDRAITALEAAVGRNRGLRGVRRLESDWGLTLGAVVTLGLFVWGFLTYGLPAMARSAAAATPRSVLTSFDTSAIEVLDNGTFMGPTHLSAARQAQLQREFKDVAQWAGGGYPYRLLLRDGTPQANGDKDSPAPSGSIGTNAFALPGGTVVMTEQLVKLAHSDRELMGVLAHETGHVTHRHSLSSIYQGLGLTLLTTAVTGDLIGASTFAAAVPTWLLKNGYSRQSETQSDEVAGRFLMERYGTTKPLRDVLARLETEDENADENSVKRDDPGAFLQTHPGTAERIRHLREIEQNWPQRRGK”, the protein production entry is “failed”.

With “MSFLVLLLAVLIEKFSALRQRVQRDEPWLNAFARREASPRTAKRPWLTLALLILVPVLLLQLALTIIGSVAYGWLVLPIHLLVLIYSLGRVDLIAVLGPFRDACRRGDAQAAVHVAQRDMRVEADNGEQLLQGVQGYMLWQAFQSFFAVIFWYFVLGPVAALAYRLLALAAEHGKTPPLVERAGQLRHAFDWVPVRLLAASFALVGNFVAVSRVMLHELLNWNISAAQLITRVGCAASEVPPPVIGTQGVTSLDMLWELLVRAAIVWYAGFALWTLLR”, the protein production entry is given as “failed”.

In the case of “MVMIMELLYAITAFILGMLHALEPGHGKSVVAAYILGTKADLKDAILLGTTITISHTAVIFLLGILSIYLLESLNVDVVHDMMSVVGGLILIAVGIWIIRSYLHPHEHKVDTKKGVITLGLSAGLVPCPAALAVLLLSISSGNLIDGLIYVAIFSIGLAISLTGLAVAFVESKELIKKYVGNRKVSKLPLISGSIIILIGLYTIAHPILEHAIV”, the protein production entry is recorded as “failed”.

On to “GDAQAGLVLLHGRGASAQGMLQLADDLDVPDIAHLAPQARMRSWYPQSFMAPRDQNEPELASALATIGDVLGRLADAGIGPARTVLLGFSQGACLATTYAAQTPQRYGGVVGLSGGLIGPDGASFDYEGSLDATPVFLGCSDQDPYIPRARVAETADVLRALNADVTSRIYEGLGHTINDAERQHARSLLRRCVD”, for which the protein production result is reported as “failed”.

Consider “MTHQVIDCLGVVLAGGLSSRMGQDKAQLKRLQKTTDPSAKSAHSMLDFSKQLLADAGIKNIVISGDNHQIPDRVPHAGPVGGIYSVLSHYLANSPEHLQPKALLILPVDLPLMTASALTELRLKGELSHKATFFSDRQKNRHHIPLYLPNNAFLNMFLMQAFHREELLANSKGNNKKNGPSVRAMLEQVPHQAIASLNNQVLFNTNTPEQWQQAQQKF”, for which the protein production entry is listed as “failed”.

Turning to “MTDNPFATPTAPVQPPAREVPATTQPYAFIAVLALVTCLSFAVSLGIQWYNDIGEIRQRFSEHLQLMAPHWFTGLVFYAAANLLVLHAYREKRQLVEFRPLALLLIGYGLLNLVCGMLAGIGLAPLTLPFYQWVTAQSSYGVWLMAFNEAMSWVYLLLGSLLPLGLVLLGSRVNSPRLAEGEEARVAAWQVALGAALCFATLCFKLMQFLPYALLRYDEPWLYGLYLSGVALPAALLFGAVCTRLPARLQRFAAGRALLLAVVAMLLWSVALLAVGGGLALLMILGLAPAGIGYTLLVALLGVGLLALLWPIGRLATRWCYADQLAA”, the protein production entry is given as “failed”.

For “MQAPRLRVGIFDDGSSTVNMAEKLDSVGHYVTVLHAPEDIRDFELVVIDAHGVEGYVEKLSAFARRGQMFLHTSLTHGITVMDPLETSGGIVMSAHPIGQDRWVASALDELGETIVGLLVGELGGSIVEIADDKRAQLAAALTYAGFLSTLQRDASYFLDEFLGDPDVTSDIVMDSAQQFQALPSLDEVIAQYDSINNPGRQRLFRDLARRQAEISRAQDIELWAIQKEDR”, the protein production entry was “not failed”.

Consider “MRKDEYRATLLEPNVWHIADYRGDSMYLVVGEEKALLVDTGMGEGDLKGFVRSITEKPVEVVLTHAHWDHIMQANQFEKVYLNHRDFQIIELFKINVNYENFLNVKEGDRFDLGGRTLEVIEVPGHTPGSIVLLDRENRLLFSGDSVGAGHTWMHLPGCLPLREYLKSLKKLKETDSFEKIYHGHLTGTQLKPFGPDYLDDLIKAVEGVIDGSLRGEP”, for which the protein production entry was “failed”.

With “RVTVMLAAFEGWNDAGEAASDALHYLNKLWDGKKVATVDAEEYYDFQFTRPTVRRTSSGARKVKWPSTRIYKAEVPDSNVDVVLVLGTEPSYRWRAYTTELLVHAEALKVDSVILVGALLADVPHSRPIPVSTTTEDSSLRERLNLEASQYEGPVGIVGVLAEFAMLAGLPTVSLWAAVPHYVAQPPSPKAQLAILHRIEDLLQVPLDSQALAEESEAWERGVDELATEDPEITAYVRQLEEAKDTADLPE”, the protein production entry is on record as “not failed”.

Turning to “MGAAVGTSEAIQMVNQRQAVWVDVRPTEQFQAGHIAQARSLPAADLEKKAGALPKNKPLIVVCEQGRDAARIAARLRSQGFAEVSVLEGGMRAWFAAGLPVTQKGLEHHHHHH”, the protein production result is recorded as “failed”.

Regarding “ENIKTILLTVLVVISLVFTWGIWTFQPNFSEGSSSTESTVRVKHKIEKTTQKLSETVRPRDMFIHDDGAHYKVDDNALYEEIWSDLPHWDVKGIKDISDQYDKAGFKSWFYGIGGSEAKLDLQFSDTIPIDIFQTLFKWSNQSFEYSSFDHILIPFNETKANKKIYLVSYSKQLILEVTVESANYRNIMNDLKNRQSNMPAFSLFSIGSKKEFLLPNKPLTMDKKEFVTESIKTNTFKQALFSDPSIVREDSNYNNRNVLTDGISRLDVNLSQRQVQFQQRNLVQSTSYQTGELIKKSQKYLEDTGSWTDHYQFFNINDSQQLSFYIFMDQIPVINSTAKPFGATSAITVQWANDDILSYKRPNYSLGTNPIKTSETELMGGSEVKMLLSKQTAYDTDKIDQIFLAYQLVSTSTNDDPLVELEPVWAMKVNGKIVPITKDLLRKEGANSGVE”, the protein production result is on record as “failed”.
